According to patent US20230243822A1, “MOLECULAR DISEASE PROFILE AND USE THEREOF FOR MONITORING AND TREATING RHEUMATAOID ARTHRITIS” (JANSSEN BIOTECH, INC., priority 2020, published 2023):

Tests used:
RA patients = settings: RA patients; cited from earlier work
[1] = test system: 4-analyte M-DP panel (CRP, CXCL10, CXCL13, SAA); assay: Pharmacodynamic M-DP score, 4-analyte panel CRP, CXCL10, CXCL13, SAA (SOMAscan), clinical studies in RA; type: in vivo, human; settings: 4-analyte; for M-DP score mean difference ± SD, Good vs. No / M-DP score mean ± SD, DAS28-CRP response group Good / M-DP score mean ± SD, DAS28-CRP response group Moderate / M-DP score mean ± SD, DAS28-CRP response group No: response at week 24
Description: Serum samples and data from eight interventional clinical studies with seven different active treatments for RA or placebo treatment were obtained and analyzed: sirukumab (anti-IL-6) and placebo treatments in SIRROUND-M (NCT01689532; Takeuchi T, et al. Arthritis Res Ther. 2018 Mar. 7; 20(1): 42), SIRROUND-D (NCT01604343; Takeuchi T, et al. Ann Rheum Dis. 2017 Dec.; 76(12): 2001-2008), and SIRROUND-T (NCT01606761; Aletaha D, et al. Lancet. 2017 Mar. 25; 389(10075): 1206-1217); sirukumab and adalimumab (anti-TNF-alpha) treatments in SIRROUND-H (NCT02019472; Taylor PC, et al. Ann Rheum Dis. 2018 May; 77(5): 658-666); golimumab (anti-TNF-alpha) treatment in GO-FURTHER (NCT00973479; Weinblatt ME, et al. Ann Rheum Dis. 2013 March; 72(3): 381-9); guselkumab (anti-IL-23p19), ustekinumab (anti-IL-12/IL-23p40), and placebo treatments in CNTO1275ARA2001 (NCT01645280; Cox JD, et al. […]); JNJ-40346527 (colony-stimulating factor-1 inhibitor) and placebo treatments in 40346527ARA2001 (NCT01597739; Genovese MC, et al. J Rheumatol. 2015 October; 42(10): 1752-60). Plasma samples were obtained from the RA-MAP TACERA study (Cope AP, et al. Nat Rev Rheumatol. 2018 January; 14(1): 53-60) before (baseline) and 6-months after initiation of conventional synthetic disease-modifying anti-rheumatic drugs (csDMARDs). Details of treatment dose groups, concomitant methotrexate use, and previous experience with csDMARDs and biologics are reported in Table 1. The studies were conducted in accordance with the Declaration of Helsinki. The study protocols were reviewed and approved by an independent ethics committee or institutional review board for each study center. Written informed consent was obtained from all patients before study entry. Additional study details and patient characteristics are available in the referenced publications for each study. For SIRROUND-D and SIRROUND-T studies, sets of serum samples from demographically-matched healthy controls were obtained from commercial sources (BioIVT, Westbury, N.Y.).
Serum samples from baseline (week 0) and the time points indicated in Table 1 were provided for quantification of 1189 serum analytes using the SomaScan v3.1 platform (SomaLogic, Boulder, Colo.; www.somalogic.com), with the exception of RA-MAP TACERA, for which plasma samples were analyzed for 1301 analytes using the SomaScan v3.2 platform. For some studies, a redacted dataset reporting data for a subset of the analytes was obtained. Relative fluorescence unit (RFU) data were sequentially normalized for hybridization controls (internal standards per samples), median signal across all samples (assumes same total protein concentration across sample set), and calibration controls (common sample standards across analysis plates). Samples failed quality control standards defined by Somalogic were excluded from analyses. The normalized RFU values were log2-transformed for subsequent analyses.
Changes in analyte expression levels were calculated for individual samples as the log2 transform of the ratio of the analyte level at the indicated time point (visit level) over the analyte level at baseline (baseline level) for a given subject, i.e., log 2(visit level/baseline level). Changes in RA disease-associated analytes per sample were summarized using a pharmacodynamic (PD) molecular disease profile (M-DP) score, defined as the median value of the log 2(visit level/baseline level) values for analytes in the defined M-DP analyte set. […] PD M-DP scores in the log 2(visit level/baseline level) scale can be transformed to percent change from baseline, using the transformation: (2^M-DP score−1)×100%.
In selecting the best minimal set of analytes that performs similarly to the full 14-analyte set, analyte sets that results in significant associations between DAS28-CRP EULAR good vs. no response with p<0.05 for each study were prioritized (Table 4). […]

[2] = SIRROUND-D, score at week 4, sirukumab SC 50 mg q4w
[3] = SIRROUND-D, score at week 4, sirukumab SC 100 mg q2w
[4] = SIRROUND-D, score at week 24, sirukumab SC 50 mg q4w
[5] = SIRROUND-D, score at week 24, sirukumab SC 100 mg q2w
[6] = SIRROUND-H, score at week 4, sirukumab SC 50 mg q4w or adalimumab SC 40 mg q2w
[7] = SIRROUND-M, score at week 4, sirukumab SC 50 mg q4w
[8] = SIRROUND-M, score at week 4, sirukumab SC 100 mg q2w
[9] = SIRROUND-T, score at week 4, sirukumab SC 50 mg q4w
[10] = SIRROUND-T, score at week 4, sirukumab SC 100 mg q2w
[11] = SIRROUND-T, score at week 24, sirukumab SC 50 mg q4w
[12] = SIRROUND-T, score at week 24, sirukumab SC 100 mg q2w

B1: Sirukumab (antibody, chains of the INN, looked up, V domains shown)
VH: EVQLVESGGGLVQPGGSLRLSCAASGFTFSPFAMSWVRQAPGKGLEWVAKISPGGSWTYYSDTVTGRFTISRDNAKNSLYLQMNSLRAEDTAVYYCARQLWGYYALDIWGQGTTVTVSS
VL: EIVLTQSPATLSLSPGERATLSCSASISVSYMYWYQQKPGQAPRLLIYDMSNLASGIPARFSGSGSGTDFTLTISSLEPEDFAVYYCMQWSGYPYTFGGGTKVEIK
notes: a human anti-interleukin-6 (IL-6) monoclonal antibody
clinical efficacy in the underlying clinical studies (RA patients): clinically efficacious | M-DP score mean ± SD, All treated [1, 2]: −1.09 ± 0.80 log2 (fold/baseline) | M-DP score mean difference ± SD, Good vs. No [1, 2]: −0.47 ± 0.79 (0.0012) log2 (fold/baseline) | M-DP score mean ± SD, DAS28-CRP response group Good [1, 2]: −1.26 ± 0.78 log2 (fold/baseline) | M-DP score mean ± SD, DAS28-CRP response group Moderate [1, 2]: −1.05 ± 0.76 log2 (fold/baseline) | M-DP score mean ± SD, DAS28-CRP response group No [1, 2]: −0.79 ± 0.81 log2 (fold/baseline) | M-DP score mean ± SD, All treated [1, 3]: −1.21 ± 0.78 log2 (fold/baseline) | M-DP score mean difference ± SD, Good vs. No [1, 3]: −0.47 ± 0.76 (0.0041) log2 (fold/baseline) | M-DP score mean ± SD, DAS28-CRP response group Good [1, 3]: −1.39 ± 0.75 log2 (fold/baseline) | M-DP score mean ± SD, DAS28-CRP response group Moderate [1, 3]: −1.01 ± 0.75 log2 (fold/baseline) | M-DP score mean ± SD, DAS28-CRP response group No [1, 3]: −0.92 ± 0.81 log2 (fold/baseline) | M-DP score mean ± SD, All treated [1, 4]: −1.43 ± 0.82 log2 (fold/baseline) | M-DP score mean ± SD, DAS28-CRP response group Good [1, 4]: −1.50 ± 0.83 log2 (fold/baseline) | M-DP score mean ± SD, DAS28-CRP response group Moderate [1, 4]: −1.46 ± 0.57 log2 (fold/baseline) | M-DP score mean ± SD, DAS28-CRP response group No [1, 4]: 0.27 ± 0.00 log2 (fold/baseline) | M-DP score mean ± SD, All treated [1, 5]: −1.79 ± 0.78 log2 (fold/baseline) | M-DP score mean ± SD, DAS28-CRP response group Good [1, 5]: −1.80 ± 0.80 log2 (fold/baseline) | M-DP score mean ± SD, DAS28-CRP response group Moderate [1, 5]: −1.84 ± 0.95 log2 (fold/baseline) | M-DP score mean ± SD, DAS28-CRP response group No [1, 5]: −1.59 ± 0.19 log2 (fold/baseline) | M-DP score mean ± SD, All treated [1, 6]: −0.88 ± 0.69 log2 (fold/baseline) | M-DP score mean difference ± SD, Good vs. No [1, 6]: −0.40 ± 0.59 (0.0549) log2 (fold/baseline) | M-DP score mean ± SD, DAS28-CRP response group Good [1, 6]: −0.92 ± 0.65 log2 (fold/baseline) | M-DP score mean ± SD, DAS28-CRP response group Moderate [1, 6]: −0.95 ± 0.74 log2 (fold/baseline) | M-DP score mean ± SD, DAS28-CRP response group No [1, 6]: −0.52 ± 0.41 log2 (fold/baseline) | M-DP score mean ± SD, All treated [1, 7]: −1.69 ± 0.76 log2 (fold/baseline) | M-DP score mean difference ± SD, Good vs. No [1, 7]: −0.96 ± 0.66 (0.0010) log2 (fold/baseline) | M-DP score mean ± SD, DAS28-CRP response group Good [1, 7]: −1.92 ± 0.63 log2 (fold/baseline) | M-DP score mean ± SD, DAS28-CRP response group Moderate [1, 7]: −1.34 ± 0.75 log2 (fold/baseline) | M-DP score mean ± SD, DAS28-CRP response group No [1, 7]: −0.96 ± 0.85 log2 (fold/baseline) | M-DP score mean ± SD, All treated [1, 8]: −1.87 ± 0.75 log2 (fold/baseline) | M-DP score mean ± SD, DAS28-CRP response group Good [1, 8]: −1.86 ± 0.69 log2 (fold/baseline) | M-DP score mean ± SD, DAS28-CRP response group Moderate [1, 8]: −1.99 ± 0.94 log2 (fold/baseline) | M-DP score mean ± SD, DAS28-CRP response group No [1, 8]: −1.21 ± 0.43 log2 (fold/baseline) | M-DP score mean ± SD, All treated [1, 9]: −1.02 ± 0.84 log2 (fold/baseline) | M-DP score mean difference ± SD, Good vs. No [1, 9]: −0.39 ± 0.73 (0.0126) log2 (fold/baseline) | M-DP score mean ± SD, DAS28-CRP response group Good [1, 9]: −0.91 ± 0.75 log2 (fold/baseline) | M-DP score mean ± SD, DAS28-CRP response group Moderate [1, 9]: −0.82 ± 0.79 log2 (fold/baseline) | M-DP score mean ± SD, DAS28-CRP response group No [1, 9]: −0.50 ± 0.70 log2 (fold/baseline) | M-DP score mean ± SD, All treated [1, 10]: −0.79 ± 0.76 log2 (fold/baseline) | M-DP score mean difference ± SD, Good vs. No [1, 10]: −0.34 ± 0.81 (0.0416) log2 (fold/baseline) | M-DP score mean ± SD, DAS28-CRP response group Good [1, 10]: −1.13 ± 0.80 log2 (fold/baseline) | M-DP score mean ± SD, DAS28-CRP response group Moderate [1, 10]: −1.05 ± 0.93 log2 (fold/baseline) | M-DP score mean ± SD, DAS28-CRP response group No [1, 10]: −0.79 ± 0.83 log2 (fold/baseline) | M-DP score mean ± SD, All treated [1, 11]: −0.85 ± 0.81 log2 (fold/baseline) | M-DP score mean difference ± SD, Good vs. No [1, 11]: −0.43 ± 0.79 (0.0167) log2 (fold/baseline) | M-DP score mean ± SD, DAS28-CRP response group Good [1, 11]: −0.98 ± 0.81 log2 (fold/baseline) | M-DP score mean ± SD, DAS28-CRP response group Moderate [1, 11]: −0.88 ± 0.81 log2 (fold/baseline) | M-DP score mean ± SD, DAS28-CRP response group No [1, 11]: −0.55 ± 0.76 log2 (fold/baseline) | M-DP score mean ± SD, All treated [1, 12]: −1.03 ± 0.83 log2 (fold/baseline) | M-DP score mean difference ± SD, Good vs. No [1, 12]: −0.44 ± 0.78 (0.0067) log2 (fold/baseline) | M-DP score mean ± SD, DAS28-CRP response group Good [1, 12]: −1.18 ± 0.80 log2 (fold/baseline) | M-DP score mean ± SD, DAS28-CRP response group Moderate [1, 12]: −1.19 ± 0.90 log2 (fold/baseline) | M-DP score mean ± SD, DAS28-CRP response group No [1, 12]: −0.74 ± 0.75 log2 (fold/baseline)
